Data on 1 molecule can be found in paper PMC12103069 (2025).

In this experiment the target is UBE2L3 wild type (Mus musculus). Kind of experiment: MST.
UBE2L3 wild type (Mus musculus), sequence (B2R4A7 whole entry): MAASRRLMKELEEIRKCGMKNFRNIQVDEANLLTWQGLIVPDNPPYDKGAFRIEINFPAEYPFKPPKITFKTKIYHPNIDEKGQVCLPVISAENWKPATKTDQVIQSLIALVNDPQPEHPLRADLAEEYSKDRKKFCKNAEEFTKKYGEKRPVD

B1: GST-MuRF1RM (MuRF1 amino acids 1-115, RING and MFC domains) (domain or fragment)
chain: MDYKSGLIPDGNAMENLEKQLICPICLEMFTKPVVILPCQHNLCRKCANDIFQAANPYWTNRGGSVSMSGGRFRCPSCRHEVIMDRHGVYGLQRNLLVENIIDIYKQECSSRPLQ
modifications: red fluorescent dye NT-647, covalently, by amine coupling (in the fluorescence assay only)
Regarding B1, binding was put at a Kd of 150 nM.

As usually defined, the Kd is the constant that tells how readily two partners part at equilibrium. Read a low Kd as tighter binding.
